Results taken from the DeepSol protein solubility set.

Experiment: soluble on expression in E. coli; label from the status in PepcDB or PDB records

Which “soluble on expression in E. coli” value does the source give for “MSLRRSKATDHQAAGPSPGPRDAFRPASVDEDVPAAVGRLLDRFLAERVARAAALDPVFAHDIAERVARFTLDGGKRTRSQFVWWAHRACGGPAAGAEAALRVGAALELIQTCALVHDDVMDGSRLRRGRPALHTDVSAQYADAVLPAPGTRFGEAAAILAGDLALAWADDVVADTDLAPDPGRRVREVWSCLRMEMVAGQYLDIQGQATSSHSEARAMRAACLKSALYSVQRPLELGAALAGADTATTQALCSAGRCVGLAFQLRDDLHDVFEEPRRTGKPSGGDIRAGKPTYLVAVARARAEAAGDRGALAVLRRSLGCADLSDADLARVRDVLVTTGARDTVEAEIDRLVAQGLRHMGAASLAPEGRRHLDALLRSAAGAPSVRRQAPDASRSENGMPVSLLLTATAEGAPEKGIITITTDPNSSSVDKLAAALEHHHHHH” here?
The value was “soluble”.

Which “soluble on expression in E. coli” value does the source give for “MSLRRVFMKQIEGGICAVRGVSAYGIKPGKMGIAVIRAEGPAAGVFTRNKVVAAPVTLSRERIETEHRLSAVIANSGNANAFTGDDGFLDAMEMASMVAENLGLDPDNVAVASTGVIGRRLDVSFIKEHLPEVLEGLGSSPECSRAAAKAIMTTDRALKESAVELDCGVRIGAIAKGSGMIEPNMGTMLCFAYTDAKVPADVLDAALKIAVDKTFNMVVVDGDTSTNDMVLFTSTCKSGVKPCLDCLDDFEEGLVCVFTDLAKKMAKDGEGATKLIEARVTGAKKYEDARLVAKTIVRSPLVKSAIFGKDPNWGRVVAAAGYSGAELEQERLTLSFSGGGEEVELVKAGEISTASDLSLLKKIMANDEIIINLDLAMGEESATAWGCDLTYDYVRINAEYTTLEHHHHHH” here?
Its value is “not soluble”.

For “MSLRSLTHIAKIELPPVRRVTYVKHYSIQPANLEFNAEGTPVSRDFDDVYFSNDNGLEETRYVFLGGNQLEARFPEHPHPLFVVAESGFGTGLNFLTLWQAFDQFREAHPQAQLQRLHFISFEKFPLTRADLALAHQHWPELAPWAEQLQAQWPMPLPGCHRLLLDEGRVTLDLWFGDINELISQLDDSLNQKVDAWFLDGFAPAKNPDMWTQNLFNAMARLARPGGTLATFTSAGFVRRGLQEAGFTMQKRKGFGRKREMLCGVMEQTLPLPCSTPWFNRTGSSKREVAIIGGGIASALLSLALLRRGWQVTLYCADEAPALGASGNRQGALYPLLSKHDEALNRFFSNGFTFARRLYDSLPVKFDHDWCGVTQLGWDEKSQHKIAQMLSMDLPEELAVAVEANAVEQITGVTTNCSGITYPQGGWLCPAELTRNVLELAQQQGLQIYYQYQLQDLSRKDDCWLLTFAGDQQATHSVVVLANGHQISRFSQTSSLPVYSVAGQVSHIPTTPELAKLKQVLCYDGYLTPQNPANQHHCIGASYHRGSEETAYSEDNQQQNRQRLIDCFPHAQWAKTVDVSKKEARCGVRCATRDHLPMVGNVPDYEATLVEYASLAEQKDKAVSAPVFDDLFMFAALGSRGLCSAPLCAEILAAQMSDEPIPMDASTLAALNPNRLWVRKLLKGKAVKAGEGHHHHHH”, which “soluble on expression in E. coli” value is on record?
Its value is “soluble”.

Which “soluble on expression in E. coli” value does the source give for “MSLRVTYRRRLSYNTTSNKKRLVKTPGGRLVVQYIKKRGQIPKCRDTGVKLHGITPARPIALRLLKRNERTVTRAYGGCLSPNAVKERITRAFLVEEQKIVNKVIKHQKD” here?
The value was “not soluble”.

Which “soluble on expression in E. coli” value does the source give for “MSLRYSKLTMLIPCALLLSACTTVTPAYKDNGTRSGPCVEGGPDNVAQQFYDYRILHRSNDITALRPYLSDKLATLLSDASRDNNHRELLTNDPFSSRTTLPDSAHVASASTIPNRDARNIPLRVDLKQGDQGWQDEVLMIQEGQCWVIDDVRYLGGSVHATAGTLRQSIENREGHHHHHH” here?
The value was “soluble”.

For “MSLSAQGSQDGRFAGQLALVTGASRGIGAATAKALAAQGAHVVLVARTAKELEKVEEEIFEAGGSATIAPVDLSEPEGIARLATAISGRWSALDVLVINAAAFPTLTPVWQIDSREFNNALTLNVLATQALLAGFDGMLKKSKDARVIGVTSSVGATPRAYWGAYGASKAAFDVLLDCYAQEVRNTSAVRVAILDPGATRTKMRARAYPGENPESVKAPEVVAERMVALLGEQFSSPHRERVNQDEGHHHHHH”, which “soluble on expression in E. coli” value is on record?
The value was “soluble”.

Which “soluble on expression in E. coli” value does the source give for “MSLSDFDYIQKNTPPEFPEKFKTALLPENIKKNRYSDVLANDDTRVKLNNNGYINANYIFQGRMIASQAPTIETIPDFLQMIIEQQVPIVIMLTKCKEKTRIKATPYWGYKSEGGKKVFGNYTVNTIDTLYDDVEEDKFMEDIQIRYLQIIYEDGVYSFIQIHYMGWPDFGVPLNPKDALDIVYIQYIIGTTSKFSNRNLVCVHCSAGVGRTGVYCLLSRIVEMVTYEILEKSETYSKQRSTSSSSKVREVEDRIEEILLSHPVISYEDCEVILPELVLSIRNERSKMVQTKEQYDFICETVNCFYEDALDSINQYYEVIDALTEGHHHHHH” here?
Its value is “not soluble”.

Which “soluble on expression in E. coli” value does the source give for “MSLSDFHEVRFPLDVALRGSGGPVRRTEIVTLASGQEHRNSRWADSRRRYDAGLGMRTLDALHAVLSFFEERRGRMYGFRYRDRVDYRSGPPSQAPAPIDQAIGTGDGATRVFALAKTYGGGPQAYRRTIAKPVAGSVRVAVNGVELAAGAVSCDPATGRLTFAPGAVPPPGAAITAGFEFDVPVRFDTDELSIDMAAFTAGEVPRIPLIEIVLEGHHHHHH” here?
Its value is “soluble”.

With “MSLSDGAVVRALVLEAPRRLVVRQYRLPRIGDDDALVRVEACGLCGTDHEQYTGELAGGFAFVPGHETVGTIAAIGPRAEQRWGVSAGDRVAVEVFQSCRQCANCRGGEYRRCVRHGLADMYGFIPVDREPGLWGGYAEYQYLAPDSMVLRVAGDLSPEVATLFNPLGAGIRWGVTIPETKPGDVVAVLGPGIRGLCAAAAAKGAGAGFVMVTGLGPRDADRLALAAQFGADLAVDVAIDDPVAALTEQTGGLADVVVDVTAKAPAAFAQAIALARPAGTVVVAGTRGVGSGAPGFSPDVVVFKELRVLGALGVDATAYRAALDLLVSGRYPFASLPRRCVRLEGAEDLLATMAGERDGVPPIHGVLTEGHHHHHH” as the sequence, how does the “soluble on expression in E. coli” value read?
The value was “not soluble”.

For “MSLSDHKIDRIRVHRVLIPGKAVHSHGIGDVAGIHAVILEVITDTGLTGWGEASPWPAFTGTAEGTVAALYTYLRPHLIGQDPVQVERHMRDAEALVVGHPEAKAALEMALLDLTGQISGLSVCELVGGRMRDDMGLSFSVANPDFGKDLEDVAAMWAEGVRIFKIKTGFKSHGFDLMRLEKLRGIYGAEADLRIDYNQGLPAYDAVRCIRDLEAFRPTFVEQPVKMHERDALAHIAHVIETPIMADESVFGVREALHGVQIRMADIFSLKVMKSGGIRRALEVSAIARAAGIEVYGGCMFETGLAHAAGAHLMAALPELRLDCEFYMSTYYASEDILTEPFPVRGGRVHVPEGPGLGVAVDPAMLAKYAQAEALGEGHHHHHH”, which “soluble on expression in E. coli” value is on record?
The value was “soluble”.

Which “soluble on expression in E. coli” value does the source give for “MSLSDKDKRRLEYKELAKESKAKSKMLAASQGKGLVAKIAIGSALGNIIGNAMSKAAGGLLGFAKKAVEEKSKTNRAKLLNSAFFEKDERNTIMGTLKGMKGFERDLEKEEFLNQASVFKGTLRDLGMLNLTNLKKAVEFSAALKSSGAMSGEDAVKAVNSLLSGEGDELFDLLKKSGVGDKYIEDAKKAWQSGAEVDLESRITMLVEMFKDFKSFGITKKADTKEEIDSNLASAEQTLSNLTTTVLDPLLKFIKMVTGLSEGHHHHHH” here?
Its value is “soluble”.

Which “soluble on expression in E. coli” value does the source give for “MSLSDKTMTADEAVSRLRSGMTLGIGGWGSRRKPMALVRALLRSGITDLTVVSCGGPDVGMLAAAGRIRKLVAAFVTLDSIPLEPHYRAARERGALELMEIDEAMFLWGLRAAAGRLPFLPVRAGIGSDVMRVNPGLRTITSPYVDGETFVAMPALRLDAALVHLNRADRLGNGQYLGPDPYFDDLFCEAADTAYVSCERVVDTAELTKEAAPQTLLVKRHTVTGVVEAPNGADFTSCVPDYGRDEALQRYYATTPWPEFAERFLGGGEPAYRSAVQDWRKEREGHHHHHH” here?
Its value is “soluble”.

Which “soluble on expression in E. coli” value does the source give for “MSLSDLFTTIKGQVTGKNVRIVLPEGTDERIVGAAARLQKENIVKPILLGNKAEIEAKAKEIGVSVEGIAIHEPATDPLFDELVAAFVERRKGKATEEAARKMLVDPNYFGTMLVYTGKAEGLVSGAAHSTGDTVRPALQIIKTKPGVSKVAGAMIMVRGEERYLFSDVAINIAPVAADLAENAIVSAETAEIFGIDPRVAMLSFSTKGSAKSDETEKVVEATALAKEKAPELTLDGEFQFDAAFVPTVAEKKAPGSVIKGDANVFIFPSLEAGNIGYKIAQRLGNFEAVGPILQGLNAPVNDLSRGCNTDDVYNLTLITAAQAVNKEGHHHHHH” here?
Its value is “soluble”.

Which “soluble on expression in E. coli” value does the source give for “MSLSEAGHKFLAKLGKKRLRPGGKRATDWLIAEGGFSKEKRILEVACNRGTTAIELAQRFGCKITAVDMDAQALEVAKKSAGTAGVAHLISFERANAMKLPYQDASFDIVINEAMLTMQADQAKKKCVMEYLRVLKPGGLLLTHDVLLKEAKESIRQELSQAIHVNVGPLTQDGWEQVMIESGYCDVKALTGEMTLMKLSGMIYDEGLLGTLKICVNACKKENRKQFLTMYKMFAKNKQKLGFIAMASYKSSKREGHHHHHH” here?
Its value is “not soluble”.

Which “soluble on expression in E. coli” value does the source give for “MSLSENPIASVRLLRLQREEASLQQYRDNIGALKSQLTKNETLLDGISANLRDARDLLVAAANQPPTDDLKAMASPLVSLRDSILYAANTKDSEGRYMFSGSAVNNAAIVVDDTQPAGSRYRYNGNGDRQRVTVGEGVTEASNVTLESMAPLLNQLDKAIATLQSPTLDSKDPAVGATIREVMGGVDTALDRVGGTISELGGAQNVLKTLDGNHDSLSLANQESIIELGSLDYGTAYIAMNNLSMALQTSQKAYGKVSQLTLFDVIEGHHHHHH” here?
Its value is “soluble”.

Which “soluble on expression in E. coli” value does the source give for “MSLSEQHIDPTRLRMDELVVALTDRETELAAAEGRIRELEREVSELRRSLNSPSQEAELERLRLLAGTTAVTGPGVVVTLSETPEAVTAKNRVADEDIWRVVNELYTAGAEAIAVGGVRLTSVSGIRNVGERILVGETMIASPVEIHAIGDPAVLDASLKLRGGVIDLLARWGIKVTVVKSDSLTLPPLKTQPAFRYAKPAESAGSEGHHHHHH” here?
Its value is “soluble”.

Which “soluble on expression in E. coli” value does the source give for “MSLSGNYLPRNTLVESLGHAMLKLSGWKIEGQLPALDKFVVIGAHHTSNWDFVAFLAAKFVLRLNARWFGKHTLFNGPLGGLMRRWGGIPIQRHLKLNTVDQAIQAFREHREFMLIIAPEGTRKKVDRWRMGFYHIARGAGVPVVPAALDYENRRIVIGEPFWPTGNEDADLCSLIGFYRPFIPKKPHYAFLGDEGHHHHHH” here?
Its value is “soluble”.

With “MSLSGSDYCFSTLGCSELSLHETADLTERHGIANVELRALSGTIDLIAALTAEFGTPARFAAFLSERNLRVAALNTSMRLFGSDSLSEIEPFIDWAEAANIAYLRIFDGGKKIGPEDLDRSAALLDNWQAVRQTRGLNVDLMIETHDALSDFEQLLTFIEQVPAARILWDTHHTWAKGSNLKMVWRQIERNVVHLHVKDSVMDSDRERRYVLPGQGEFPISELLSLILPNERQIPLSLEWERHWHPQLPPLADALKAAHSWWRQGVSEGHHHHHH” as the sequence, how does the “soluble on expression in E. coli” value read?
The value was “soluble”.

For “MSLSHYDRMKRSSIAPYRRSNDSSNRIDKKTGKKGHGLMSKLKDLVSFGWAQEHHKDNDFSARDTGRERTNVSKGSYAAVPGGFFSSDQSSFILRERSRIMNESTMHSEADTSNAKLADFFAKKGNEPLSEIEMEGVLALMQKSRGVADESSFLGNSSRLLGDISNANASQVLRTGNISTSSALNVPNFKPSTDESRNINAKEVENSTIVSTPLKRKNFDYSSIRSPYRTVIYRFDDSNKKKISSVFDKPESSSQEVDETPKPSNSKPLSNTASALVSLLSDKDAAKESIKPMANPYTSHLTALRKSREDLPSINDKITVPKRRQRSETEDKEEAKITSSNGEAQEDTNIPEGIASRKNEEAQDSFTKYKPMRSSSLRDSVSLAHTESNNEKQMNSPKFVPAPLDKNETKETAKSDLTLTSSDKQSESKPSFSFPVNSTTKSTFMGTKKESTSPAVNSEGHHHHHH”, which “soluble on expression in E. coli” value is on record?
Its value is “soluble”.
